The source of these data is patent publication US20240174755A1 (published 2024).

For assay [1], the target named is human PDGFR β on HEK293-PDGFR β cells (human) (UniProt P09619). The assay can be described thus: time course on HEK293-PDGFRβ cells, plate reader; not statistically significant.
Assay [2] shares this target. The assay can be described thus: time course on HEK293-PDGFRβ cells, plate reader.
The target is the same in assay [3]. The assay can be described thus: HEK293-PDGFRβ cells with 500 uM liposome, plate reader (data not shown).
The target is the same in assay [4]. The assay is described as follows: HEK293-PDGFRβ cells with 500 uM liposome on ice, plate reader.
Assay [5] shares this target. The assay is described as follows: HEK293-PDGFRβ cells with 500 uM liposome, plate reader.
In assay [6] the target is human PDGFR β ECD (U-protein Express, Utrecht) (human) (UniProt P09619). The assay can be described thus: dose response ELISA, PDGFR β ECD coated at 2 µg/ml, rabbit anti-VHH detection.
Assay [7] has as its target T1, human PDGFR β extra-cellular domain (ECD), Fc- and His-tagged (Sino Biological) (human, UniProt P09619 33-532).
T1 construct: extracellular domain; Bought; also called hECD; Fc/His-tagged PDGFR β ECD; not shown: Fc tag and His tag
The assay is described as follows: SPR (Biacore 3000), Fc/His PDGFR β ECD captured on protein A; 1B5 construct not stated. As for the experimental part: FIG. 11: VHH (flag-his-tagged, or conjugated with HL488, NOTA or 800 CW) binding to human extracellular domain (ECD) of PDGFR β assessed with surface plasmon resonance (SPR). Fc/His-tagged PDGFR β ECD was bound to protein A chemically conjugated to CM4 sensor chip. Binding of VHHs was tested at 0.39-50 nM. Shown are representative SPR Biacore traces of tagged or conjugated 1B5 VHH (panels A); tagged or conjugated 1D4 VHH (panels B); tagged or conjugated 1H4 VHH (panels C) or tagged VHH 1E12 (panel D).
SPR analysis was performed using the Biacore 3000 instrument (GE Healthcare). Protein A was chemically bound to a CM4 sensor chip (GE Healthcare) according to the primary amine procedure to approximately 2100 response units (RU). Fc/His-tagged PDGFR β ECD at 0.4-2.07 ng/ul was bound to protein A at flow rate of 35 ul/min. Run buffer HBS-EP (GE Healthcare; 0.01 M HEPES pH 7.4, 0.15 M NaCl, 3 mM EDTA, 0.005% v/v Surfactant P20) was used for VHHs 1D4, 1H4 and 1E12 conjugates at 50, 25, 12.5, 6.25, 3.13, 1.56, 0.78 and 0.39 nM. For 1B5 conjugates, HBS-EP+0.5 M NaSCN was as run buffer to reduce non-specific binding to a control path without PDGFR β ECD. A flow rate 70 ul/min was used for VHH injections in volumes of 150 ul. Regeneration of the sensor CM4 chip was performed by three successive injections of c. 30 s 10 mM glycine-HCl pH 2, 10 mM glycine-HCl pH 1.5, and 0.5 M NaSCN/10 mM NaOH.

In assay [8] the target is human PDGFR β on HEK293-PDGFR β cells (human) (UniProt P09619). The assay is described as follows: FACS dose response, dialyzed VHH-HL488 batch (data not shown).
Assay [9] shares this target. The assay can be described thus: cell binding on ice for 1 h, fluorescence plate reader.
For assay [10] the target is unchanged. The assay is described as follows: FACS dose response, 1 h at 37° C.
The target is the same in assay [11]. The assay is described as follows: FACS, 1-10 nM VHH-HL488, 1 h.
The target is the same in assay [12]. The assay can be described thus: FACS dose response, 1 h at 37° C. (MFI).
Assay [13] deals with T2, human PDGFRa (Sino Biological; Cat. Number 10556-HCCH) (human, UniProt P16234 24-524, limits assumed).
T2 construct: Bought; construct not described; also called PDGFRα
The assay can be described thus: direct ELISA, PDGFRa coated, streptavidin-HRP detection. As to the method: (§1) 96-well maxisorp (Nunc) immunosorp plates were coated with 2 ug/ml of human PDGFRa (Sino Biological; Cat. Number; 10556-HCCH) or 2 ug/ml human EGFR/HER1/ErbB1 Protein (His Tag, Sino Biological; Cat. Number; 10001-H08H) in PBS, 100 ul per well, at 4C overnight. Wells were washed thrice in PBS. Unspecific binding sites were blocked in 4% BSA/PBS for 1 h at RT, followed by washing thrice in PBS. VHH-biotin conjugates, diluted at 0.01-100 nM in 1% BSA/PBS, were incubated for 1 h at RT, followed by washing thrice in PBS. Streptavidin-horseradish peroxidase (HRP; GeneTex) was diluted 1:40,000 in 1% BSA/PBS and was incubated for 1 h at RT. PDGFRa or EGFR was detected with positive control antibodies rabbit anti-human PDGFRa/CD140a Antibody, (Cat no: 10556-R065) or rabbit anti-human EGFR/HER1/ErbB1 (Catalog no: 10001-R021, both from Sino Biological) diluted in 1% BSA/PBS at 1:5000 and were incubated for 1 h at RT, shaking. Secondary HRP-conjugated anti-rabbit-antibody was diluted at 1:5000 in 1% BSA/PBS and was incubated for 1 h at RT, shaking. Wells were washed 6 times in PBS. o-Phenylenediamine dihydrochloride (OPD; Sigma-Aldrich) was used as HRP substrate at 0.4 mg/ml in 0.05 M phosphate-citrate buffer pH 5.0 with 0.03% sodium perborate (Sigma-Aldrich), prepared according to the manufacturer's recommendations, and was used in volume of 100 ul per well. Reaction was allowed to proceed for 30 min at RT in dark, and was stopped by adding 50 ul of 1.5 M HCl. Optical density was measured at 492 nm on a Synergy H1 microplate reader (BioTek).
VHH-biotin binding to human PDGFRa was assessed using an ELISA, where wells were coated with PDGFRa, and VHH-biotin binding was detected using streptavidin-HRP with OPD as a substrate.

For assay [14], the target named is T3, human EGFR/HER1/ErbB1 Protein (His Tag, Sino Biological; Cat. Number 10001-H08H) (human, UniProt P00533 25-645).
T3 construct: Bought; construct not described; not shown: His tag
The assay can be described thus: direct ELISA, EGFR coated, streptavidin-HRP detection. As for the experimental part:
as §1

B1: 1B5-liposome-100 (protein)
VHH: EVQLVESGGGLVQPGGSLRLSCVASGFSFSESAMSWVRQAPGKGLEWLSGISSGGGRSTTYAESVEGRFTISRDDAKNTLMLQMNSLKSEDTAVYYCAKTGYCSGYNCNFAPRGQGTQVTVSS
modifications: coupled to maleimide-PEG-DSPE and post-inserted into calcein/rhodamine PE liposomes; 100 nanobodies per liposome
As to B1, in assay [1], the fold calcein fluorescence over liposome-0, 0 h (binding and/or uptake) is 2.2 fold and the fold calcein fluorescence over liposome-0, 1 h (binding and/or uptake) is 2.8 fold. In assay [2], the fold calcein fluorescence over liposome-0, 3 h (uptake) is 4.7 fold and the fold calcein fluorescence over liposome-0, 6 h (uptake) is 5.1 fold. The same molecule displayed a fold rhodamine PE signal, 37° C. in assay [3] of 2.4 fold. Moreover, in assay [4], the fold calcein fluorescence over non-targeted control, on ice (binding) was 1.8 fold. In assay [5], the fold calcein fluorescence over non-targeted liposome-0, 37° C. (binding and uptake) was 3.4 fold.

B2: QPD-1B5 (VHH)
VHH: B1 VHH
notes: Purified, unconjugated VHH; also called VHH 1B5
For B2, the apparent affinity in assay [6] turned out to be 1 nM. Moreover, the Kd in [7] is 4 to 5 pM.

B3: 1B5-HL488 (VHH, not shown: small tags and cut ends)
VHH: B1 VHH
modifications: HiLyte Fluor 488-maleimide on the C-terminal cysteine of the C-Direct tag
As to B3, the concentration at which detectable by FACS in [8] turned out to be 1 nM. For the same molecule, the values for the detection limit in assay [9] and in assay [10] were 1 nM and 0.1 nM, respectively. The molecule further returned an MFI at 4° C. (binding) as percent of MFI at 37° C. (binding and uptake) in [11] of 52 to 58%.

B4: QPD-1E12 (VHH)
VHH: EVQLVESGGGLVQAGGSLRLSCAPSERSFSAYLMGWFRQAQGKEREFVAAWRWPTSTTYYSDSGKGRFTITGDNAKNTVELEMNSLKPEDTAVYYCAARRGILYGPATSPTAYDFWGQGTQVTVSS
For the molecule B4, the apparent affinity in assay [6] turned out to be 10 nM.

B5: 1E12-HL488 (VHH, not shown: small tags and cut ends)
VHH: B4 VHH
modifications: HiLyte Fluor 488-maleimide on the C-terminal cysteine of the C-Direct tag
In turn, B5 had a detection limit in assay [12] of 100 nM. This molecule also returned a lowest concentration detectably bound or taken up (percentage of HL488-positive population) in assay [10] of 10 nM.

B6: 1D4-HL488 (VHH, not shown: small tags and cut ends)
VHH: EVQLVESGGGLVQAGDSLRLSCAVSGRAQSRDVVGWFRQAPGKEREFLALVTRSYSTYYGASVKGRFTISRDNAKNTVHLEMNSLKPEDTGVYYCAADQGFCSGSGCYDWRTFHVWGQGTQVTVSS
modifications: HiLyte Fluor 488-maleimide on the C-terminal cysteine of the C-Direct tag
Molecule B6 registered a concentration at which detectable by FACS in [8] of 1 nM. In [10], this molecule gave a detection limit of 0.1 nM. The MFI at 4° C. (binding) as percent of MFI at 37° C. (binding and uptake) in assay [11] is 53 to 61%.

B7: 1D4-biotin (VHH)
VHH: B6 VHH
modifications: Biotin-maleimide on the C-terminal cysteine of the C-Direct tag
notes: ID NO: 27 or 28; also called biotin-conjugated 1D4; VHH-biotin; not shown: C-terminal C-Direct tag with a free cysteine and an EPEA purification tag (vector pYQVQ11)
For the molecule B7, the binding result in assay [13] and in [14] was “no binding (tested: 0.01-100 nM)” throughout.

B8: QPD-1H4 (VHH)
VHH: EVQLVESGGGLVQPGGSLRVSCSASWRTGNPFAMAWFRQAPGKERELIARISWTAGRTEYAESAKGRFTISRDVAKKTMYLQMNSLTPEDTGVYFCAARFVPSSGPTVFDTWGQGTQVTVSS
As to B8, the apparent affinity in assay [6] is under 1 nM.

B9: 1H4-HL488 (VHH, not shown: small tags and cut ends)
VHH: B8 VHH
modifications: HiLyte Fluor 488-maleimide on the C-terminal cysteine of the C-Direct tag
B9 had a concentration at which detectable by FACS in assay [8] of 10 nM. The detection limit in assay [10] stood at 0.1 nM. This molecule gave an MFI at 4° C. (binding) as percent of MFI at 37° C. (binding and uptake) in [11] of 65 to 66%.

B10: 1H4-biotin (VHH)
VHH: B8 VHH
modifications: Biotin-maleimide on the C-terminal cysteine of the C-Direct tag
notes: ID NO: 29 or 30; also called biotin-conjugated 1H4; VHH-biotin; not shown: C-terminal C-Direct tag with a free cysteine and an EPEA purification tag (vector pYQVQ11)
Take B10: the binding result in assay [13] and in assay [14] was “no binding (tested: 0.01-100 nM)” throughout.
